Biological target: Fc-binding nanodisc F-ND_(P2N2), made with F-MSP2N2
Assay: SEC

immunoglobulin G (IgG) (antibody)
stoichiometry N: 1 molar ratio

Reference: publication PMC11761773
